From IntAct's records for PubMed 22265419

B1: WASH complex subunit homolog 3 (Caenorhabditis elegans), O01901 (parent)
chain: MNASSRTKPAIDLNKVPPIDHHRTAVTFNCLIMKMTEMLNNFGNKMEDILEKAEQSLDTADRKLRLMESKLAGMSLEDKSTTATPSSAPEIDEIHESNPSSSQIVEETVEEKPEEHTTTVLIKDDPAYSKYFKMLKLGVLEAGVIQKMKSEGVDPSILKRGDEPSRPQAQTSRNYESSGESTASFSDSD
partner: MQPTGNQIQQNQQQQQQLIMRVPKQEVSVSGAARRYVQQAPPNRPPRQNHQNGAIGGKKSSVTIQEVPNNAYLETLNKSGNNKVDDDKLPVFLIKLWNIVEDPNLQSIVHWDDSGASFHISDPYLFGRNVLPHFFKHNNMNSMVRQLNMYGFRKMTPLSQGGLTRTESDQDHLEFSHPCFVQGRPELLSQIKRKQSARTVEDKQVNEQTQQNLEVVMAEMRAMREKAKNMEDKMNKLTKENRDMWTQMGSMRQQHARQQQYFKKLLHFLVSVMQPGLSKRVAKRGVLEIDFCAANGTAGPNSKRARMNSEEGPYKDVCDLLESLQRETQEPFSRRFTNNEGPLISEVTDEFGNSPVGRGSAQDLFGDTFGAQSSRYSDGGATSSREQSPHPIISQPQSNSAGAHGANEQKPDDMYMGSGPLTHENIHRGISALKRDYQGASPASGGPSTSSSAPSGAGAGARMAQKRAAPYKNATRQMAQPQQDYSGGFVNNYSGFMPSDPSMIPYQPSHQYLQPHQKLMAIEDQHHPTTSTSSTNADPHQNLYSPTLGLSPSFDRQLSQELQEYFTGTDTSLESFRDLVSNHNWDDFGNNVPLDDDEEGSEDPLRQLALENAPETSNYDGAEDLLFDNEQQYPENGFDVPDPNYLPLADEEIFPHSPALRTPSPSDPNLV

Variants of: B1
Conditions: with hsf1_caeel hsf-1, G5EFT5

| effect of a mutation on the interaction | Variant |
| --- | --- |
| increasing interaction | T182A |
